Experimental data taken from patent US8916686B2, “TDF-related compounds and analogs thereof” (Thrasos Innovation, Inc., priority 2004, dated 2014).
Read-outs that look alike come from different tables or passages of the source.

Assays:
ALK-3 = ALK-3 (Homo sapiens, UniProt P36894); experiment: Radioligand receptor binding assay (competition with 125I-labeled TDF-1)
Excerpt: General protocol: These assays are based on competition between ^125I-labeled TDF-1 (BMP-7 or OP-1) and candidate TDFRP compounds or unlabeled TDF-1 for binding to respective receptors (ALK-3, ALK-6 or BMPR-2). In brief, the procedure involves immobilization of receptor on 96 well Removawell plates, blocking the wells with 3% BSA in PBS and subsequently washing the wells. Increasing concentrations of unlabeled TDF-1 or TDFRP compounds or control (unlabeled TDF-1) prepared in binding buffer are then added. Incubate plate for 1 hour at room temperature, and then add a fixed amount of ^125I-labeled TDF-1 (250,000 to 350,000 cpm) to the wells and further incubate in cold (4° C.) for 20 hours. Aspirate the contents of the wells and wash the wells four times with a wash buffer, and count the receptor bound ^125I-labeled TDF-1 in an auto gamma counter.
Using this procedure, TDFRP compound binding to select ALK receptors are assessed. Accordingly, TDFRP compounds that preferentially bind select ALK receptors can be identified. For example, TDFRP compounds that preferentially bind to ALK-3 receptor compared with binding to other ALK receptors, e.g., ALK-6 (FIG. 1 and FIG. 11).

[1] = tested on: HK-2 (Human Kidney-2) cells; experiment: HK-2 cell culture, TNF-alpha induced cytokine production (IL-6 ELISA); type: cell-based
Experimental: The immortalized PTEC-derived HK-2 (Human Kidney-2) cells (ATCC number CRL-2190) were grown in serum-free keratinocyte medium (GIBCO number 17005-042) supplemented with epidermal growth factor (EGF: 5 ng/mL) and bovine pituitary extract (40 ug/mL) for 48 hours as described previously (Ryan et al (1994) Kidney International 45:48-57). Cells were transferred to 24-well plates at a density of 3×10^5 cells per well. After 24 hours, cells were incubated with fresh medium containing TNF-alpha (5 ng/mL) for 20 hours. Controls received medium alone. Then cells were washed twice with fresh culture medium and further incubated with culture medium alone (medium control, and TNF control wells) or TDF-1 at three different concentrations (40, 200 or 1000 ng/mL) or TDFRP compounds at three different concentrations (4, 20 or 100 uM) for sixty hours. During incubation, cells were kept in a 5% CO2 humid atmosphere at 37° C. At the end of the incubation, the media were removed and stored frozen until assayed. The concentrations of IL-6, IL-8 and sICAM-1 in culture supernatants were measured by specific ELISA (FIG. 10). […]
An 8 point standard curve is prepared using 2-fold serial dilutions in reagent diluent. […] The optical density of each well is determined immediately using a microplate reader (Dynex Revelation 4.22) set to 450 nm and a wavelength correction at 550 nm […]

ALK-3, sequence (P36894 24-532, species assumed): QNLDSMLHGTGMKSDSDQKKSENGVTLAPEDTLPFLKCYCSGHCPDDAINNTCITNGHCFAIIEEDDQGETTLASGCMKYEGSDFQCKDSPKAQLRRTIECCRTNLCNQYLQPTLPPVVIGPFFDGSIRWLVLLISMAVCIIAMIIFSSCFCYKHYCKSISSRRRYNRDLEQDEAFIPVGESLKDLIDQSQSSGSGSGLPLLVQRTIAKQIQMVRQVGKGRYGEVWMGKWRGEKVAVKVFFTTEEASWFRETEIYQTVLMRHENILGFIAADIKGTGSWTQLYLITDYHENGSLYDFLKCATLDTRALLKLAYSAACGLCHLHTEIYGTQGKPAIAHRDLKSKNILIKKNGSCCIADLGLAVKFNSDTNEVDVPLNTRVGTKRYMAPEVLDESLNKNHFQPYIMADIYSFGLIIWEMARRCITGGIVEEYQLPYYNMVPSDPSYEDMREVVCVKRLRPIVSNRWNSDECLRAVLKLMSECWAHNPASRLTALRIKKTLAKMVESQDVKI

differential binding to Type I receptors (ALK-3 compared to ALK-6) (ALK-3): selectively binds to ALK-3
Sequence: CYFDDSSNVLCKKYRS [SEQ ID NO 45]
differential binding to Type I receptors (ALK-3 compared to ALK-6) (ALK-3; listed as SEQ ID NO:45): binds preferentially to BMP type I receptors (ALK3)
TNF-alpha induced inflammatory response (increase in IL-6) in proximal tubule cells [1]: can alleviate this inflammatory response
